Measurements published in patent US20260078398A1, “PLANTS GENETICALLY ENGINEERED FOR INCREASED WATER USE EFFICIENCY AND CARBON INTAKE AND METHODS FOR MAKING AND USING THEM” (The Regents of the University of California, priority 2022, published 2026).
Where a chain is given by its changes, count along the chain named. Numbers in names are those of the source. Blank lines part the entries; values can stand above or below the molecule they belong to.

Legend:
[1] = target: T1, MPK12 (recombinant Arabidopsis MAP kinase MPK12)
T1 chain: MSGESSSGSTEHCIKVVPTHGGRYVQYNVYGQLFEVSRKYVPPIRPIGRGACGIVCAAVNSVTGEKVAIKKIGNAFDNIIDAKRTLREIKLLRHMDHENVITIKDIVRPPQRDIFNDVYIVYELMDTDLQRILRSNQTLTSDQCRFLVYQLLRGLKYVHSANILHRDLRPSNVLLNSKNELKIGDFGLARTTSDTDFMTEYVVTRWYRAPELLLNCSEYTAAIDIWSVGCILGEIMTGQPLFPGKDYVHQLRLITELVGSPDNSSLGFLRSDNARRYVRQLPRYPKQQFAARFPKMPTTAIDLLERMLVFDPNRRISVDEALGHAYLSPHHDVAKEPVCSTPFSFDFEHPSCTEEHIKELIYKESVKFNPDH

[2] = test system: MPK4/12, HT1 and CBC1 recombinant proteins; experiment: in vitro phosphorylation assay: NaHCO3-dependent down-regulation of HT1-mediated CBC1 phosphorylation; type: biochemical, Arabidopsis; details: isoform replaces wild type protein or is added; 20 mM NaHCO3 vs NaCl control, 30 min
Experimental: We tested whether this HT1-mediated activation of CBC1 is inhibited by CO2/bicarbonate by adding NaHCO3 in in vitro phosphorylation reactions. […]
FIG. 2. […] Histone was used as an artificial protein kinase substrate. • (B) MPK4, HT1 and CBC1 proteins were incubated with NaHCO3 at the indicated concentrations for 30 min, and in vitro phosphorylation assays were performed. • (C) CBC1 band intensities as shown in (B) were measured using IMAGEJ™, n=4 experiments, error bars show ±S.D. • (D) MPK4, HT1 and CBC1 proteins were incubated in reaction buffers adjusted at different pH (6.5 to 8.5) for 30 min, and in vitro phosphorylation assays were performed. • (E) CBC1 band intensities and the density-ratios of ‘+NaHCO3’ to ‘—NaHCO3’ (=+NaCl controls) for each pH condition
FIG. 3. […] Ambient CO2 concentrations are indicated by the top bars. n=7 experiments, error bars show ±SEM. • (C) Recombinant HT1 (wild type, HT1-G89R or HT1-R173Q) and CBC1 proteins were incubated with MPK4 in the presence or absence of 20 mM NaHCO3 or 20 mM NaCl (−controls) for 30 min, and in vitro phosphorylation assays were performed. • (D) Recombinant MPK12, CBC1 and HT1 (WT or R102K) proteins were incubated with or without 20 mM NaHCO3 or 20 mM NaCl (−controls) for 30 min, and in vitro phosphorylation assays were performed. Histone was used as an artificial kinase substrate. • (E) HT1 (WT or A109V) proteins were used for in vitro phosphorylation assays. Proteins were incubated with or without 20 mM NaHCO3 or 20 mM NaCl (−controls) for 30 min. • (F) Stomatal conductances were analyzed using intact plants of Arabidopsis (Col-0 (WT), cbc1 cbc2, ht1-A109V and cbc1 cbc2 ht1-A109V). CO2 concentration changes were applied as indicated on top (p.p.m.). […]

MPK4 and HT1 = experiment: in vitro pull-down assay, His-HT1 with GST-MPK4; type: binding, Arabidopsis; details: pull-down with or without 20 mM NaHCO3
Experimental: We therefore investigated a possible binding between MPK4 and HT1 and the effect of HCO3^−.
FIG. 4. […] CO2 concentration changes were applied as indicated on top (p.p.m.). n=6 experiments, error bars show ±SEM. • (J) Model of plant stomatal CO2 sensor and signaling (see text).
FIG. 6. […] Precipitated proteins were washed with buffers supplemented with NaHCO3 at the indicated concentrations (0, 2 or 20 mM). See FIG. 4d for an independent experiment. To control for effects of Na^+, 20 mM NaCl (0 mM NaHCO3) for lanes 1 and 4 were included in the buffers; and 18 mM NaCl (2 mM NaHCO3) for lane 3 were included in buffer.

[3] = target: T2, His-HT1 (recombinant Arabidopsis HT1 protein kinase, wild type, with His tag)
T2 chain: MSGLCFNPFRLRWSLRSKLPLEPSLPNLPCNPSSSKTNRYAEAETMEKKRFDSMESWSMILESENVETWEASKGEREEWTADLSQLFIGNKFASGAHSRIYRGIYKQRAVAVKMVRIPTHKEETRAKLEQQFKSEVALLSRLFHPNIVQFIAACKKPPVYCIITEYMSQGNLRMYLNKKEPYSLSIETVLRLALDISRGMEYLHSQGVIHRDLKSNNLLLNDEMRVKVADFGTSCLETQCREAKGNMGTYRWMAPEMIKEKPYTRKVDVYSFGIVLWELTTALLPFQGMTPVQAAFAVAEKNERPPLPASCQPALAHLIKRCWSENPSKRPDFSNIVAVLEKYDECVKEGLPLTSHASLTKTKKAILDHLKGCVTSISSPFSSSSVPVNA

HT1-G89R = target: T3, HT1-G89R (Arabidopsis, UniProt Q2MHE4 1-390); experiment: in vitro pull-down with or without NaHCO3 (FIG. 4E, n=3)
T3 construct: Recombinant HT1 isoform; No tag is stated for the variant; the wild type in the same pull-down was His-HT1; also called ht1-G89R isoform
T3 sequence: T2 chain with G89R
Experimental: FIG. 4E illustrates gel protein separation images showing data where in vitro pull-down assays were performed using recombinant HT1 (wild type, HT1-G89R and HT1-R173Q) proteins;
FIG. 4. Bicarbonate inactivates HT1 kinase by stabilizing HT1 interaction with MPK4/12. [0265] (A) Recombinant CBC1, HT1 and MPK4 proteins are incubated with or without 20 mM NaHCO₃ for 30 min, and in vitro phosphorylation assays were performed. [0266] (B) CBC1 and HT1 proteins were incubated with or without 20 mM NaHCO₃ or 20 mM NaCl (“−” controls) in the presence or absence of MPK12 protein. [0267] (C) His-HT1 and GST-MPK4 or GST control proteins were used for in vitro pull-down assays with or without 20 mM NaHCO₃. NaHCO₃ or 20 mM NaCl (“−” controls) were supplemented in all buffers throughout the pull-down assay procedures including the washing step. [0268] […] [0269] (E) In vitro pull-down assays were performed using recombinant HT1 (wild type, HT1-G89R and HT1-R173Q) proteins. [0270] (F) In vitro pull-down assays were performed using HT1-R102K isoform. [0271] (G) In vitro pull-down assays were performed using HT1-A109V isoform. [0272] […] [0273] (I) Stomatal conductances were analyzed in leaves of intact Arabidopsis plants [Col-0 (WT), mpk 12, pGC1:MPK12-GFP/mpk12 and pGC1:MPK12 (K70R)-GFP/mpk12]. CO₂ concentration changes were applied as indicated on top (p.p.m.). n=6 experiments, error bars show ±SEM. [0274] […]

HT1-R102K = target: T4, HT1-R102K (Arabidopsis, UniProt Q2MHE4 1-390); experiment: in vitro pull-down with or without NaHCO3 (FIG. 4F, n=3)
T4 construct: Recombinant HT1 isoform; No tag is stated for the variant
T4 sequence: T2 chain with R102K

HT1-A109V = target: T5, HT1-A109V (Arabidopsis, UniProt Q2MHE4 1-390); experiment: in vitro pull-down with or without NaHCO3 (FIG. 4G, n=3)
T5 construct: Recombinant HT1 isoform; No tag is stated for the variant; also called ht1-A109V isoform
T5 sequence: T2 chain with A109V

B1: HT1-R102K (protein)
chain: T2 chain with R102K
- NaHCO3-triggered down-regulation of CBC1 phosphorylation and CBC1 activity, in vitro phosphorylation assay with MPK12 and CBC1 (FIG. 3D, n=3) [1]: both of these R102K and A109V mutations disrupt the NaHCO3-triggered down-regulation of CBC1 phosphorylation and CBC1 activity
- NaHCO3-mediated down-regulation of CBC1 phosphorylation/activity with the protein isoform in the reaction [2]: disrupt the NaHCO3-triggered down-regulation of CBC1 phosphorylation and CBC1 activity
- HCO3- dependent binding of HT1 isoform with MPK4 (MPK4 and HT1): did not show a bicarbonate-induced interaction of HT1 with MPK4

B2: HT1-A109V (protein)
chain: T2 chain with A109V
- NaHCO3-triggered down-regulation of CBC1 phosphorylation and CBC1 activity, in vitro phosphorylation assay with MPK4/12 and CBC1 (FIG. 3E, n=4) (MPK4/12): both of these R102K and A109V mutations disrupt the NaHCO3-triggered down-regulation of CBC1 phosphorylation and CBC1 activity
- NaHCO3-mediated down-regulation of CBC1 phosphorylation/activity with the protein isoform in the reaction [2]: disrupt the NaHCO3-triggered down-regulation of CBC1 phosphorylation and CBC1 activity
- HCO3- dependent binding of HT1 isoform with MPK4 (MPK4 and HT1): did not show a bicarbonate-induced interaction of HT1 with MPK4

- binding result (HT1-G89R): no binding
- binding result (HT1-R102K): no binding
- binding result (HT1-A109V): no binding
B3: GST-MPK4 (recombinant Arabidopsis MAP kinase MPK4 with GST tag) (enzyme)
chain: MSAESCFGSSGDQSSSKGVATHGGSYVQYNVYGNLFEVSRKYVPPLRPIGRGAYGIVCAATNSETGEEVAIKKIGNAFDNIIDAKRTLREIKLLKHMDHENVIAVKDIIKPPQRENFNDVYIVYELMDTDLHQIIRSNQPLTDDHCRFFLYQLLRGLKYVHSANVLHRDLKPSNLLLNANCDLKLGDFGLARTKSETDFMTEYVVTRWYRAPELLLNCSEYTAAIDIWSVGCILGETMTREPLFPGKDYVHQLRLITELIGSPDDSSLGFLRSDNARRYVRQLPQYPRQNFAARFPNMSAGAVDLLEKMLVFDPSRRITVDEALCHPYLAPLHDINEEPVCVRPFNFDFEQPTLTEENIKELIYRETVKFNPQDSV
notes: The tag is placed at the N-terminus only because of the printed name GST-MPK4; The phosphorylation assays say only 'MPK4' and name no tag; also called AtMPK4; AT4G01370; not shown: GST tag
- CBC1 and histone phosphorylation in vitro (HT1 + CBC1 + MPK4, 20 mM NaHCO3; FIG. 2A, n>6) [3]: when MPK4 or MPK12 were added to the reaction, we found that the addition of NaHCO3, but not NaCl, inhibited both CBC1 phosphorylation and histone phosphorylation in vitro
